Results published in the supplement of paper PMC12764529.
± gives the half width of the 95% confidence interval.

Assay: folding stability dG unfold from chymotrypsin proteolysis; higher = more stable
How it was run: (§1)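 How resistant each design was to proteolysis was captured as K50, inferred by Bayesian fitting of sequencing counts. Unfolding free energy was then derived relative to a sequence-predicted unfolded-state K50 and a shared folded-state K50, per protease or combined. Digestion used trypsin and chymotrypsin at 11 threefold-diluted concentrations plus a no-protease condition, on mini-proteins under 80 residues without cysteine in a PA-tagged cDNA display construct. Designs were kept only when AlphaFold2 dimer inter-PAE was above 15.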

Sequence	folding stability dG unfold
SAGGGMKLTITVTNADGSTTTETLTLGDLEKALEFLESDPTASLASIEIKPVPDTSEVEMNVSLTVPASAGG [r13_796_JUSTAS]	1.55 ± 0.035 kcal/mol
SAGGSAGGSMPFKIDVEVERHPEDNMYQVEITFPGNREIPIMVDDPSDPEKAKNIAKEFAKQLSAGGSAGGS [r12_1012_TrROS]	-0.648 ± 0.7 kcal/mol
SAGGSAMDPSKLVRKKVRFRVVDPNGKPLGEIDIEVEFPGGVSEEEAEELLRELIAALAPPAGVEGSAGGSA [r15_310_TrMRF]	3.023 ± 0.023 kcal/mol
SAKTLTIEELAKKLKEELEKKTGKKLSKEELKKKALELAKKLAEEKGLKIKSVKVEEKDGKLTVTVEVESAG [r14_147_TrROS_Hall]	3.26 ± 0.082 kcal/mol
SAGGSAGGSGVLVRITATHPDGSTEEVLEIEVPNDENDPAKLKAIAEELAKKAGMKNIKIELLSAGGSAGGS [r12_569_JUSTAS]	2.49 ± 0.027 kcal/mol
SAGGSAGGSAGGEKTIVISEEEAEKLAKELEKKGLTVERKPDGTLKVNGKEIRIIVVEPSAGGSAGGSAGGS [r10_930_TrROS_Hall]	0.858 ± 0.07 kcal/mol
SAGGSAGGSGSMLPITTVTPTPDGVWKITYELPDGSTRTITVPPDDLSLSGPPSSSGSSAALASAGGSAGGS [r20_194_JUSTAS]	0.041 ± 0.31 kcal/mol
SAGGSAGGSAPNLEVEEQRNPDGGMEMEIIRLKNDGLTIFFMEMRPDDKTMTMLMLMPLDASAGGSAGGSAG [r3_126_TrROS]	2.32 ± 0.13 kcal/mol
SAGGDPSATPVVVEFTLPDGARAVATTFPSGVVVARVFNPVTGRTTEVTVTVVPESATATVTVRPNPDSAGG [r13_822_TrMRF]	1.13 ± 0.067 kcal/mol
SAGMTIVVEVPKKDITPEELAKKLEERFGLKVVEIKVEEVEEDKVRVTIRFEETGETLELTAEEIKELLSAG [r5_550_TrROS_Hall]	3.81 ± 0.17 kcal/mol
SAGGSMTISLDETIDVPEDVGVTFTFADDTVATAYFDPSEGKVRVVVYDPNKPGTLLGEFTLPVLPSAGGSA [r2_266_TrMRF]	1.41 ± 0.07 kcal/mol
SAGGSAPEALVFVERREDDSLTVVVLFPDGTLVTRRVEVRDEGVTVETETAPVLVIPEPGRLELALSAGGSA [r15_746_TrMRF]	1.39 ± 0.046 kcal/mol
SAMERVEIVVKVKVRPDMSLEELKERVERELRRLLEERGIELPEGAKITVEIVEETEDYVVVKVTIELPSAG [r14_735_TrROS_Hall]	2.91 ± 0.14 kcal/mol
SAGGSAGGELELELTVRLPNGLEVRIRARVKFDEETNEWTITEIEIEIRPLPPPPVLDKDGKLVSAGGSAGG [r6_506_TrROS_Hall]	3.04 ± 0.31 kcal/mol
SAGGSAGGSAGGETIELKLPNGKVLRVEKDKEKGKTYKIYDTKTKKLVKTFKSKEALKKASAGGSAGGSAGG [r7_72_TrROS_Hall]	1.19 ± 0.17 kcal/mol
SAGGSAGGSAGGQTIVIDSRLLRTALENGDLEKLKALVEEAGYNPENAKIYLITPEELKESAGGSAGGSAGG [r7_3_TrMRF]	0.741 ± 0.11 kcal/mol
SAGGSAGGSKVKIETVENEDGVKFERVVDEETGKTVFLAKNKKTGKLYLFVITPDGEIKVFELSAGGSAGGS [r12_474_TrROS_Hall]	2.6 ± 0.049 kcal/mol
SAGGPEVFVFRDPLTGTWSLAVYDPSTGLWTVTYPDGTVALYRRSGDSWELVEARPVPPAPVDPDLASAGGS [r16_687_TrMRF]	3.714 ± 0.014 kcal/mol
SAGGSMIEVERDPNDPNRYRARLPVIEENPPEPKLVYVDVYVDPENGLVYARAVTEDGGEAEFRFESAGGSA [r2_428_TrMRF]	1.03 ± 0.16 kcal/mol
SAGGSAGGSGKPLLLVRLKIRNKETGEEETVVLEADSLDEALARLPPGAEIVSIEVVRLDLPPSAGGSAGGS [r12_208_TrROS_Hall]	5.38 ± 0.075 kcal/mol
SAGGMLPGEPEVELVLEIEIDVPPGEISAEELERLLRELFPGAEVVDVRVEEEGGKLRIEVVIRLPPSAGGS [r8_202_TrROS_Hall]	2.67 ± 0.058 kcal/mol

Assay: folding stability dG unfold (combined trypsin and chymotrypsin); higher = more stable
How it was run: as §1

Sequence	folding stability dG unfold
SPFIMIRIDIERKNGKEVEMMFPVPANNIKNNLRDHLGPGYKVKITDIEPIDPEQFPPGQMIKIRYRVKPSA [r9_803_TrROS]	1.79 ± 0.18 kcal/mol
SAGMVEVLEEKTDPNSDLVTVTLYAPDVPDGFRVVVYPKDGVPIEISIKRGEEVVLKLPANVEKIEFIGSAG [r14_671_JUSTAS]	2.51 ± 0.092 kcal/mol
SAGGIKELAKKGYEIKEVTVRVRNKDGSVYEITEIKVVDGELYIKVKNKKTGKIEEKKIPLKDIEIVPSAGG [r13_340_TrROS_Hall]	1.83 ± 0.09 kcal/mol
SAGGSAGGSAGSVTVSSTTTTLTDSMRVITETFTSPDLVKVTFVPTSNPEDVTVTTLPSASAGGSAGGSAGG [r11_1046_JUSTAS]	0.643 ± 0.092 kcal/mol
SAGGSAGGSLRLRVTFTVTVTFLDGNRLRPAKVEITVEIELEPIPPELLRPRPLPGDKLEYDLSAGGSAGGS [r12_1031_TrMRF]	3.16 ± 0.25 kcal/mol
VDLGIRTESVGGRRYRVLIRRPGTGEPRVLEVEGTLEEARERALREIREEYPDLPVRSINPVPVPAPPWLES [r1_80_TrMRF]	-0.139 ± 0.15 kcal/mol
SAGGMIAEIKPIPPNVPDGATATITFPDGTPAEAELRTEPLEDGPRRVVLKLKGKEGEIELEFVLPLSAGGS [r8_360_TrMRF]	0.0112 ± 0.099 kcal/mol
SAGGSAGGKKYRVVVYNPETGEWVEVEEVEFDPETGEVRVRLPGSGKEVTIPKDYPVYLNPELDSAGGSAGG [r6_884_TrMRF]	2.9 ± 0.045 kcal/mol
SAGGMEEVIKELAKSLGVTKILPESEAKKLSSSVPNALAAVKLPDGSYVLIKRNSDGSVSSIKYKLESAGGS [r16_686_JUSTAS]	1.54 ± 0.1 kcal/mol
SAKEEYYKVRIYFPETNEVVEIEAKSEEEALEALKKLLNEPNIVKIEIEKVEVEEEPEEKEYSEEELKSSAG [r14_747_TrROS_Hall]	2.32 ± 0.12 kcal/mol
